Reference: patent US20110039770A1 (PHARMAGAP, published 2011)

Tests used:
PKC-δ (purified isoform) [1] = biological target: T1, PKC-δ (purified isoform); experiment: competitive ELISA, coated purified PKC-δ, vs anti-PKC δ (SC-213); PRE 100 µM
T1 construct: also called PKC-delta
Procedure, shortened: (§1)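 Plates coated overnight at 4 °C with purified PKC isoform at 250 ng/mL, blocked, then exposed 1 h at room temperature to PRE (from 20 mM DMSO stock) diluted in PBS with Ca/Mg. Bound isoform antibody detected with AP-conjugated secondary and pNPP (8 min; δ 15–20 min), absorbance 405 nm.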

PKC-α (purified isoform) [2] = biological target: T2, PKC-α (purified isoform) (Homo sapiens (Human), UniProt P17252 2-672); experiment: competitive ELISA, coated purified PKC-α, vs anti-PKC α (SC-208); PRE 50 µM
T2 construct: also called purified PKC-alpha; commercially purified PKC-alpha
Procedure, shortened: as §1

[3] = biological target: T3, PKC-βI (purified isoform) (Homo sapiens (Human), UniProt P05771 2-671); experiment: competitive ELISA, coated purified PKC-βI, vs anti-PKC βI (SC-209); PRE 100 µM
T3 construct: also called PKC-beta I; PKC beta 1
T3 sequence (P05771 2-671 limits assumed): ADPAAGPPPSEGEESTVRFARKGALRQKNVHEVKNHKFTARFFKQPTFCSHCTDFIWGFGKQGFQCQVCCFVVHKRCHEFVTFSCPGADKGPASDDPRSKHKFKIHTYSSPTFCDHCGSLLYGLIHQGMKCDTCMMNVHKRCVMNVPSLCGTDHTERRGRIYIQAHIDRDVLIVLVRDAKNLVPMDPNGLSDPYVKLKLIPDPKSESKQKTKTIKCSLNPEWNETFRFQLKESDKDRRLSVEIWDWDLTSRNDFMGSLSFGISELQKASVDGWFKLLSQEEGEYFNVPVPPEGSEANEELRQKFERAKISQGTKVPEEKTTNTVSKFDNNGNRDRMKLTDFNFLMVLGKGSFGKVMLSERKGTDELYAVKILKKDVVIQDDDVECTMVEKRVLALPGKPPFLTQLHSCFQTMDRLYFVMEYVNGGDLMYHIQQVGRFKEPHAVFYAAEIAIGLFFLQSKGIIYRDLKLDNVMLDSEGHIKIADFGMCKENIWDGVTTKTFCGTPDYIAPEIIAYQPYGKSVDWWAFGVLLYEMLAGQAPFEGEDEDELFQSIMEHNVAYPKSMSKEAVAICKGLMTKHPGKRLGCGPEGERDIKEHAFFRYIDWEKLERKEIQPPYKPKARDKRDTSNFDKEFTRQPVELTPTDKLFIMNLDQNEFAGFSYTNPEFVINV
Method: (§2) Greiner 96 well ELISA plates were coated with the appropriate PKC isoform diluted in PBSN (PBS with Calcium/Magnesium+0.05% Sodium azide w/w). 50 μL/well at 250 ng/mL was used. Control wells contained PBSN only. Plates were incubated overnight at 4° C.
(§3) The plates were washed 3 times with 200 μL of dH₂O per well, then 100 μL of blocking solution was added per well and the plate incubated for 1 h at 37° C. The washing steps with dH₂O were repeated and 50 μL of the appropriate PRE solution (PRE stock solution [20 mM in DMSO] diluted in PBSN) was added and the plate incubated for 1 h at room temperature.
(§4) 50 μL of 1:1000 dilution of Alkaline Phosphatase (AP) conjugated antibody (anti-rabbit for all except zeta, which was anti-goat) was then added and the plate incubated for 1 h at room temperature. Washing with dH₂O was then repeated. Finally, 100 μL of pNPP solution in pNPP buffer (2 mM MgCl₂, 100 mM Sodium bicarbonate in water, pH 9.8) was added to all wells and incubated for 8 minutes for α, βI, βII ε, and ζ, or for 15-20 mins for δ (until sufficient coloration is observed). The reaction was stopped by addition of Stop solution (2N NaOH) and the absorbance at 405 nm was read on a Galaxy Plate reader.

[4] = biological target: T4, PKC-ε (endogenous, IMR-32 lysate) (human, UniProt Q02156 1-737); experiment: WB competition Protocol B, IMR-32 extract, vs anti-PKC-ε Ab; PKC-ε Band 1; 20 µg peptide
T4 construct: Band 1 and Band 2 (alternate splicing variants, not identified further) are kept under one molecule; the band is named in the assay field of each row; also called PKC-epsilon; PKC-ε Band 1
T4 sequence (looked up): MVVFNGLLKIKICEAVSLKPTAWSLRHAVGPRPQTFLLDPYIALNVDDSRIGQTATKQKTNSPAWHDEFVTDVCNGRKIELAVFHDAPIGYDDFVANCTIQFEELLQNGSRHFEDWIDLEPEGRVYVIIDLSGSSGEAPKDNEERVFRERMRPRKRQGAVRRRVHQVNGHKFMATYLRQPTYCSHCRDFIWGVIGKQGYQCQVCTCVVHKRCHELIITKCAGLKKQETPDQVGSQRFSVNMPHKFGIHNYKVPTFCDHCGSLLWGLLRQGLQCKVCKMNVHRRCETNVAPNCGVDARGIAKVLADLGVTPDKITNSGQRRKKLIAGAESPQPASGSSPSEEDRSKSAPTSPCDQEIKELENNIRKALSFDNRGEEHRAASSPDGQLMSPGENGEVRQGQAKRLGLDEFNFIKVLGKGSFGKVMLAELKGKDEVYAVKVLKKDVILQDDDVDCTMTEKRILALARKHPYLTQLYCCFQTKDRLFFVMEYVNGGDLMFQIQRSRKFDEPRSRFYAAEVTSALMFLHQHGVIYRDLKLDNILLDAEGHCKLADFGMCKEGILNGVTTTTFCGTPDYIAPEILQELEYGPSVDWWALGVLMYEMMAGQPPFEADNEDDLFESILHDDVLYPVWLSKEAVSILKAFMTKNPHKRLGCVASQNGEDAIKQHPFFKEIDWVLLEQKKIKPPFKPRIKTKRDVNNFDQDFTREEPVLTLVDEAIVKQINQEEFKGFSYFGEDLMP
Method: (§5) The ability of the peptides PRE 2 and PRE 3 (see Table 4) to interfere with the binding of a PKC-α-specific polyclonal antibody (Santa Cruz Biotechnology, Inc.) to PKC-α was determined using a modified version of the protocol outlined above in which the test peptide was added directly to the cell extract prior to electrophoresis at a concentration of either 5× or 15× the concentration of the protein applied to each well of the gel for the Western blots (20 μg).
(§6) Peptides PRE 2, PRE 3 and PRE 4 (see Table 4) were tested for their ability to interfere with the binding of isoform-specific polyclonal antibodies (Santa Cruz Biotechnology, Inc.) to […] using the general protocol described in Example 3. Two bands, representing alternate splicing variants of PKC-ε, were identified on the Western blot using this anti-PKC-ε antibody.

PKC-α (purified isoform) [5] = biological target: T2, PKC-α (purified isoform); experiment: competitive ELISA, coated purified PKC-α, vs anti-PKC α (SC-208); PRE 100 µM
Procedure, shortened: as §1

PKC-δ (purified isoform) [6] = biological target: T1, PKC-δ (purified isoform); experiment: competitive ELISA, coated purified PKC-δ, vs anti-PKC δ (SC-213); PRE 200 µM
Procedure, shortened: as §1

PKC-δ (purified isoform) [7] = biological target: T1, PKC-δ (purified isoform); experiment: competitive ELISA, coated purified PKC-δ, vs anti-PKC δ (SC-213); PRE 50 µM
Procedure, shortened: as §1

[8] = biological target: T5, PKC-βII (purified isoform) (Homo sapiens (Human), UniProt P05771 2-621); experiment: competitive ELISA, coated purified PKC-βII, vs anti-PKC βII (SC-210); PRE 50 µM
T5 construct: also called PKC-beta II; PKC beta 2
T5 sequence (P05771 other isoform, or with tags, fused parts or gaps limits assumed): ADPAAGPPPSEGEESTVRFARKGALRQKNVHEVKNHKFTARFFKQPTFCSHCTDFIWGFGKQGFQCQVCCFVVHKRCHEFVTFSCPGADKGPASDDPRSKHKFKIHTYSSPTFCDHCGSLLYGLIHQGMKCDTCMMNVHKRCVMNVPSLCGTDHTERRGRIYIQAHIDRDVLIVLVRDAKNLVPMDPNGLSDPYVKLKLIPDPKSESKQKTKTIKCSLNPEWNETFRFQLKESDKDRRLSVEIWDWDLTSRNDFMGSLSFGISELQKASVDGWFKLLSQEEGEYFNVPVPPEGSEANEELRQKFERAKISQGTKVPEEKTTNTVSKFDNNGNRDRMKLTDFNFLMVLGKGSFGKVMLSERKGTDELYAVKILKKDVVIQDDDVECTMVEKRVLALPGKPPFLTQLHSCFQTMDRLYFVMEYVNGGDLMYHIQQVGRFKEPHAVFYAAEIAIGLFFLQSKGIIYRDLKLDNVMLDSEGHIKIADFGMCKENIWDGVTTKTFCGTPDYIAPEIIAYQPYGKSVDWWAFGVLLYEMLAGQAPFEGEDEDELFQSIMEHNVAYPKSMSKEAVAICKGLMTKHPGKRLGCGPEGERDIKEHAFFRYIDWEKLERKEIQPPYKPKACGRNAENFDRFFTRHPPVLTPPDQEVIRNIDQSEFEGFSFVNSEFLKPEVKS

[9] = biological target: T3, PKC-βI (purified isoform); experiment: competitive ELISA, coated purified PKC-βI, vs anti-PKC βI (SC-209); PRE 200 µM
Method: as §2, §3, §4

[10] = biological target: T4, PKC-ε (endogenous, IMR-32 lysate); experiment: WB competition Protocol B, IMR-32 extract, vs anti-PKC-ε Ab; PKC-ε Band 1; 50 µg peptide
Method: as §5, §6

[11] = biological target: T5, PKC-βII (purified isoform); experiment: competitive ELISA, coated purified PKC-βII, vs anti-PKC βII (SC-210); PRE 100 µM

T1 sequence (Q05655 whole entry, stated change not applied, canonical isoform): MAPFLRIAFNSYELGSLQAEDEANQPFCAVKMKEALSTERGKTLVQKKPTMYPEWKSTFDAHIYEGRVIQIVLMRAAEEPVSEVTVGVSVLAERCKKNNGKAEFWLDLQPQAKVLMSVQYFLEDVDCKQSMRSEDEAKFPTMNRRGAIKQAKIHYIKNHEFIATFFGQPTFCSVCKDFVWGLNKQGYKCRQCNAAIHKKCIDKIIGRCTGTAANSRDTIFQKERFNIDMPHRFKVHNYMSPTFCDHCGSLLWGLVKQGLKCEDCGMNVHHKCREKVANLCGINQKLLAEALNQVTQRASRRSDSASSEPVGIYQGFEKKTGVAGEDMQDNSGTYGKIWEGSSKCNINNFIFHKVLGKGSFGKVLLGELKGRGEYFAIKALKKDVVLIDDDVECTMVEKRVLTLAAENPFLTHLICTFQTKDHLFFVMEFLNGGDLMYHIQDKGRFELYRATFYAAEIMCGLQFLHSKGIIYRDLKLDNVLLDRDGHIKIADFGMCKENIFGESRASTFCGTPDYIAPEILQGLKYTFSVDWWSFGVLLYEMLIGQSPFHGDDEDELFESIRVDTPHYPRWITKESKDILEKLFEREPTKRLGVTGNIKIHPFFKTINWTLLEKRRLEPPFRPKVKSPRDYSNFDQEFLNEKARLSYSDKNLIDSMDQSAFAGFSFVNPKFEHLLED

relative binding capacity (100-%n, DMSO subtracted) (PKC-δ (purified isoform) [1]): 30.7%
relative binding capacity (100-%n, DMSO subtracted) (PKC-α (purified isoform) [2]): 6.46%
relative binding capacity (100-%n, DMSO subtracted) [3]: 15.7%
Band Intensity [4]: 184
Inhibition (%) [4]: 42.9%
Relative Intensity (%) [4]: 57.1%
relative binding capacity (100-%n, DMSO subtracted) (PKC-α (purified isoform) [5]): 21.9%
relative binding capacity (100-%n, DMSO subtracted) (PKC-δ (purified isoform) [6]): 17.3%
relative binding capacity (100-%n, DMSO subtracted) (PKC-δ (purified isoform) [7]): 29.2%
relative binding capacity (100-%n, DMSO subtracted) [8]: 2.69%
relative binding capacity (100-%n, DMSO subtracted) [9]: 7.46%
Band Intensity [10]: 0
Inhibition (%) [10]: 100%
Relative Intensity (%) [10]: 0%
relative binding capacity (100-%n, DMSO subtracted) [11]: 13.5%
Binder: Ac-KDAQNLIGISI-NH2 (also called peptide PRE 4) [PRE 4]
